Results reported in US20090149389A1 (PURDUE RESEARCH FOUNDATION, published 2009).
Where no end group is shown, it is not given here. [ ]: non-standard residue; d: D form.

The binders below were run against T1, MAPKAP kinase II (MK2) (UniProt P49137 1-400, limits assumed) (assay: cell-based or functional assay).
T1 sequence (P49137 whole entry): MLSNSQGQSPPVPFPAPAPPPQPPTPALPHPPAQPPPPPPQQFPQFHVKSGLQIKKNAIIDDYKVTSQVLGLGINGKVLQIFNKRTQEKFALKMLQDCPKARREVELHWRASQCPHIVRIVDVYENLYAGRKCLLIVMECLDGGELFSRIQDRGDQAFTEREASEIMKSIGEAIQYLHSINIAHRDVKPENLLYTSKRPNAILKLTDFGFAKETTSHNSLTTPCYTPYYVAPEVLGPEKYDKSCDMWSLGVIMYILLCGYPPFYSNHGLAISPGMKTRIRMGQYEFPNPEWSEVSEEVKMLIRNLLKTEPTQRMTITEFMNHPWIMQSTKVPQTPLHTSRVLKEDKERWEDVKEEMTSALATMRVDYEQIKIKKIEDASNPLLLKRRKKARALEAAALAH

Binder	% of Blank Reaction Velocity at an Inhibitor Concentration of 6.25pN [%]
WLRRIKAWLRRIKALARQLAVA	3.3
WLRRIKAWLRRIKKKALARQLAVA	1
WLRRIKAWLRRIKALARQLGVA	3.9
WLRRIKAWLRRIKALNRQLAVA	-2.1

Molecular target: T1, MAPKAP kinase II (MK2)
Assay: cell-based or functional assay
Remark: another data set of the same source

Binder	% of … [SEQ ID NO: 124] Reaction Velocity at an Inhibitor Concentration of 100 µM [%]
KALNRQLGVA	100
KAANRQLGVAA	152
KALNRQAGVAA	118
KALNRQ[dL]GVAA [KALNRQdLGVAA]	357
KALNAQLGVAA	358
KALNRQLAVAA	72
KKKALNRQLGVAA	91
WLKKIKAWLKKIKALNRQLGVVA	-32
KALNRALGVAA	358
KALNRQLGAAA	373
KALNRQLGVAA	100
